Substitutions are numbered along the chain they refer to.
What was measured:
EGFI-Cr1 N37R = biological target: T1, EGFI-Cr1 N37R (human); experiment: direct ELISA, coated EGFI-Cr1 fusion, 0.1 µg/ml antibody
T1 construct: not shown: The fused constant region of human immunoglobulin gamma 1 heavy chain (Cr1)
T1 chain: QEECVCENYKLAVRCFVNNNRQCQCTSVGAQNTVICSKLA
Description: (§1) A direct ELISA was used for testing the reactivity of anti-EpCAM antibodies toward variant EpCAM mutants. Briefly, purified EpCAM EGF-1 fusion proteins (WT, Q24A, E25K, E26D, A35T, N37R, F39A, V40E, N41A, N42E, N43A, R44G, Q45A, Q47A or T49A) and irrelevant control (CEA-Cr1) were pre-diluted to 0.5 μg/ml in coating buffer (8.4 g NaHCO₃, 3.4 g Na₂CO₃ in 1 L H₂O, pH 9.5) and aliquoted (100 μl/well) into 96-well plates. […] Plates were then washed 3 times with PBST followed by the addition of the enzyme substrate TMB (BD Biosciences, Cat. No. 555214). […] The optical densities at 450 nm wavelength were measured on an ELISA plate reader.

EGFI-Cr1 A35T = biological target: T2, EGFI-Cr1 A35T (human, UniProt P16422 24-63); experiment: as above
T2 construct: not shown: The fused constant region of human immunoglobulin gamma 1 heavy chain (Cr1)
T2 chain: T1 chain with A12T, R14N
Description: as §1

EGFI-Cr1 E26D = biological target: T3, EGFI-Cr1 E26D (human, UniProt P16422 24-63); experiment: as above
T3 construct: not shown: The fused constant region of human immunoglobulin gamma 1 heavy chain (Cr1)
T3 chain: T1 chain with E3D, R14N
Description: as §1

EGFI-Cr1 Q47A = biological target: T4, EGFI-Cr1 Q47A (human, UniProt P16422 24-63); experiment: as above
T4 construct: not shown: the constant region of human immunoglobulin gamma 1 heavy chain (Cr1) fused at the C-terminus
T4 chain: T1 chain with R14N, Q24A
Description: as §1

EGFI-Cr1 N41A = biological target: T5, EGFI-Cr1 N41A (human, UniProt P16422 24-63); experiment: as above
T5 construct: not shown: The fused constant region of human immunoglobulin gamma 1 heavy chain (Cr1)
T5 chain: T1 chain with R14N, N18A
Description: as §1

EGFI-Cr1 V40E = biological target: T6, EGFI-Cr1 V40E (human); experiment: as above
T6 construct: not shown: The fused constant region of human immunoglobulin gamma 1 heavy chain (Cr1)
T6 chain: T1 chain with R14N, V17E
Description: as §1

[1] = biological target: T7, EGFI-Cr1 wild type (first EGF-like repeat of human EpCAM fused to the constant region of human immunoglobulin … (human, UniProt P01857-1 99-330 = IgG part)); experiment: as above
T7 construct: cDNA covered aa 1-63; Expressed in COS-7 cells; also called WT; EpCAM EGF-1 fusion protein WT
Description: as §1

EGFI-Cr1 F39A = biological target: T8, EGFI-Cr1 F39A (human, UniProt P16422 24-63); experiment: as above
T8 construct: not shown: The fused constant region of human immunoglobulin gamma 1 heavy chain (Cr1)
T8 chain: T1 chain with R14N, F16A
Description: as §1

EGFI-Cr1 Q45A = biological target: T9, EGFI-Cr1 Q45A (human, UniProt P16422 24-63); experiment: as above
T9 construct: not shown: the constant region of human immunoglobulin gamma 1 heavy chain (Cr1) fused at the C-terminus
T9 chain: T1 chain with R14N, Q22A
Description: as §1

EGFI-Cr1 Q24A = biological target: T10, EGFI-Cr1 Q24A (human, UniProt P16422 25-63); experiment: as above
T10 construct: not shown: The fused constant region of human immunoglobulin gamma 1 heavy chain (Cr1)
T10 chain: T1 chain with Q1A, R14N
Description: as §1

EGFI-Cr1 R44G = biological target: T11, EGFI-Cr1 R44G (human, UniProt P16422 24-63); experiment: as above
T11 construct: not shown: the constant region of human immunoglobulin gamma 1 heavy chain (Cr1) fused at the C-terminus
T11 chain: T1 chain with R14N, R21G
Description: as §1

EGFI-Cr1 T49A = biological target: T12, EGFI-Cr1 T49A (human, UniProt P16422 24-63); experiment: as above
T12 construct: not shown: the constant region of human immunoglobulin gamma 1 heavy chain (Cr1) fused at the C-terminus
T12 chain: T1 chain with R14N, T26A
Description: as §1

EGFI-Cr1 N43A = biological target: T13, EGFI-Cr1 N43A (human, UniProt P16422 24-63); experiment: as above
T13 construct: not shown: the constant region of human immunoglobulin gamma 1 heavy chain (Cr1) fused at the C-terminus
T13 chain: T1 chain with R14N, N20A
Description: as §1

EGFI-Cr1 N42E = biological target: T14, EGFI-Cr1 N42E (human, UniProt P16422 24-63); experiment: as above
T14 construct: not shown: the constant region of human immunoglobulin gamma 1 heavy chain (Cr1) fused at the C-terminus
T14 chain: T1 chain with R14N, N19E
Description: as §1

EGFI-Cr1 E25K = biological target: T15, EGFI-Cr1 E25K (human, UniProt P16422 24-63); experiment: as above
T15 construct: not shown: The fused constant region of human immunoglobulin gamma 1 heavy chain (Cr1)
T15 chain: T1 chain with E2K, R14N
Description: as §1

[2] = biological target: T16, human EpCAM (epithelial cell adhesion/activating molecule) (human, UniProt P16422 24-314); experiment: cell-based or functional assay
T16 sequence: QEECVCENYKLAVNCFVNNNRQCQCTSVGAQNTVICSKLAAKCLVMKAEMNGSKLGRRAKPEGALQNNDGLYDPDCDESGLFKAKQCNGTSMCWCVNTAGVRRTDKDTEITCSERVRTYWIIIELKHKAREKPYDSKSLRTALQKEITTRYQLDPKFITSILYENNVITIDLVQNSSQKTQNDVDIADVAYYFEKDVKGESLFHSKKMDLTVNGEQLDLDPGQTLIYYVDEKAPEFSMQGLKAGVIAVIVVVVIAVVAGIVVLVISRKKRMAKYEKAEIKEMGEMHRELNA

[3] = biological target: T16, human EpCAM (epithelial cell …); experiment: cell-based or functional assay; remark: listed apart in the source
[4] = biological target: T16, human EpCAM (epithelial cell …); experiment: flow cytometry, CHO/EpCAM cells, 0.1 µg/ml antibody
Description: A 300× dilution of human cell hyper-immune serum (HPS 300×) was used as binding positive control for both cell lines here. After 1 hr incubation at 4° C., cells were washed twice with 200 μl FACS buffer (1×PBS containing 1% FBS), stained with 100 μl of 1 μg/ml goat-anti-mouse IgG-PE (Southern Biotech, Cat. No. 1032-09) in FACS buffer and then incubated at 4° C. for 30 min. Cells were washed thrice with FACS buffer and analyzed by flow cytometry (BD LSR, BD Life Sciences).

B1: murine monoclonal antibody 2D11 (antibody, mouse IgG1, V domains shown)
VH: QIQLVQSGPELKKPGETVKISCKASGYTFTNYGMNWVKQAPGKGLKWMGWINTNTGEATYVEEFKGRVVFSLETSASTAYLQINNLKNEDTATYFCARIGYVWYFDVWGAGTTVTVSS
VL: DIVMSQSPSSLAVSAGEKVTMSCKSSQSLFSSRTRKNYLAWYQQKPGQSPKLLIYWASTRESGVPDRFTGSGSGTDFTLTINSVQAEDLAVYYCKHSNNLFTFGSGTKLEIKR
notes: Mouse IgG1, kappa, from hybridoma; also called m322-2D11.19
relative binding activity (% of WT) (EGFI-Cr1 N37R): 94% | relative binding activity (% of WT) (EGFI-Cr1 A35T): 95% | relative binding activity (% of WT) (EGFI-Cr1 E26D): 97% | relative binding activity (% of WT) (EGFI-Cr1 Q47A): 96% | relative binding activity (% of WT) (EGFI-Cr1 N41A): 12% | relative binding activity (% of WT) (EGFI-Cr1 V40E): 93% | relative binding activity (% of WT) [1]: 100% | relative binding activity (% of WT) (EGFI-Cr1 F39A): 97% | relative binding activity (% of WT) (EGFI-Cr1 Q45A): 89% | relative binding activity (% of WT) (EGFI-Cr1 Q24A): 99% | relative binding activity (% of WT) (EGFI-Cr1 R44G): 7% | relative binding activity (% of WT) (EGFI-Cr1 T49A): 95% | relative binding activity (% of WT) (EGFI-Cr1 N43A): 5% | relative binding activity (% of WT) (EGFI-Cr1 N42E): 58% | relative binding activity (% of WT) (EGFI-Cr1 E25K): 93% | % Annexin V/PI-positive cells, DLD-1, 1.0 µg/ml mAb [2]: 18% | % Annexin V/PI-positive cells, DLD-1, 3.0 µg/ml mAb [2]: 41% | % Annexin V/PI-positive cells, DLD-1, 10 µg/ml mAb [2]: 48% | % Annexin V/PI-positive cells, FaDu, 1.0 µg/ml mAb [2]: 34% | % Annexin V/PI-positive cells, FaDu, 3.0 µg/ml mAb [2]: 45% | % Annexin V/PI-positive cells, FaDu, 10 µg/ml mAb [2]: 46% | % Annexin V/PI-positive cells, LNCaP, 1.0 µg/ml mAb [2]: 40% | % Annexin V/PI-positive cells, LNCaP, 3.0 µg/ml mAb [2]: 39% | % Annexin V/PI-positive cells, LNCaP, 10 µg/ml mAb [2]: 40% | % Annexin V/PI-positive cells, NCI-H520, 1.0 µg/ml mAb [2]: 41% | % Annexin V/PI-positive cells, NCI-H520, 3.0 µg/ml mAb [2]: 44% | % Annexin V/PI-positive cells, NCI-H520, 10 µg/ml mAb [2]: 52% | % Annexin V/PI-positive cells, NCI-N87, 1.0 µg/ml mAb [2]: 45% | % Annexin V/PI-positive cells, NCI-N87, 3.0 µg/ml mAb [2]: 48% | % Annexin V/PI-positive cells, NCI-N87, 10 µg/ml mAb [2]: 51% | % Annexin V/PI-positive cells, NIH:OVCAR-3, 1.0 µg/ml mAb [2]: 43% | % Annexin V/PI-positive cells, NIH:OVCAR-3, 3.0 µg/ml mAb [2]: 55% | % Annexin V/PI-positive cells, NIH:OVCAR-3, 10 µg/ml mAb [2]: 56% | % Annexin V/PI-positive cells, T-47D, 1.0 µg/ml mAb [2]: 36% | % Annexin V/PI-positive cells, T-47D, 3.0 µg/ml mAb [2]: 48% | % Annexin V/PI-positive cells, T-47D, 10 µg/ml mAb [2]: 45% | % of Annexin V + PI staining (untreated background subtracted), NCI-H358, 10 µg/ml mAb, Exp1 [3]: 41% | % of Annexin V + PI staining (untreated background subtracted), NCI-H358, 10 µg/ml mAb, Exp2 [3]: 32% | % of Annexin V + PI staining (untreated background subtracted), NCI-H358, 10 µg/ml mAb, Exp3 [3]: 47% | % of Annexin V + PI staining (untreated background subtracted), NCI-H358, 10 µg/ml mAb, Exp4 [3]: 44% | % of Annexin V + PI staining (untreated background subtracted), NCI-H358, 10 µg/ml mAb, Exp5 [3]: 33% | MFI [4]: 3720 MFI

— patent publication US20110165161A1, “ANTI-EPCAM ANTIBODIES THAT INDUCE APOPTOSIS OF CANCER CELLS AND METHODS USING SAME” (priority 2009, published 2011)
